# Data published in patent US20230357340A1 (APRILBIO, published 2023).
# T1: recombinant human IL-18 (human, UniProt Q14116 37-193)
# T1 sequence (looked up): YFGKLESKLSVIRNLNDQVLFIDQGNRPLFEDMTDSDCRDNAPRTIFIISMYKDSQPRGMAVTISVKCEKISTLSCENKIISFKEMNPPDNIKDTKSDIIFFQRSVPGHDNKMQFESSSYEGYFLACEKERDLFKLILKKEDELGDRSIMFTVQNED
# T2: recombinant mouse IL-18 protein (mouse, UniProt P70380 36-192)
# T2 sequence (looked up): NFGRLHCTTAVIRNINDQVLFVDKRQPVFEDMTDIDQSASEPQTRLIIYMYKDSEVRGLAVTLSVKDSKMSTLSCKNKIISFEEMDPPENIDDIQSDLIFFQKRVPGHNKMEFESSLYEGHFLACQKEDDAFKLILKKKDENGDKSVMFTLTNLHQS
# B1: APB-R3 (recombinant fusion protein of anti-serum albumin Fab SL335 and human IL-18BP; heavy chain SL335H-peptide linker-IL-18BP, light chain SL335L) (other)
# heavy: QVQLVQSGGGPVKPGGSLRLSCAASGFMFRAYSMNWVRQAPGKGLEWVSSISSSGRYIHYADSVKGRFTISRDNAKNSLYLQMNSLRAEDTAVYYCARETVMAGKALDYWGQGTLVTVSSASTKGPSVFPLAPSSKSTSEGTAALGCLVKDYFPEPVTVSWNSGALTSGVHTFPAVLQSSGLYSLSSVVTVPSSSLGTQTYICNVNHKPSNTKVDKKVEPKSSGSAPAPGSTPVSQTTTAATASVRSTKDPCPSQPPVFPAAKQCPALEVTWPEVEVPLNGTLSLSCVACSRFPNFSILYWLGNGSFIEHLPGRLWEGSTSRERGSTGTQLCKALVLEQLTPALHSTNFSCVLVDPEQVVQRHVVLAQLWAGLRATLPPTQEALPSSHSSPQQQG
# light: DIVLTQSPGTLSLSPGETATLSCRASQSVGSNLAWYQQKPGQAPRLLIYGASTGATGVPARFSGSRSGTDFTLTITSLQPEDFATYYCQQYYSFLAKTFGQGTQLEIKRTVAAPSVFIFPPSDEQLKSGTASVVCLLNNFYPREAKVQWKVDNALQSGNSQESVTEQDSKDSTYSLSNTLTLSKADYEKHKVYACEVTHQGLSSPVTKSFNRGES
# notes: The IL-18BP part is glycosylated; also called APB-R3 protein
# Experiments:
# [1] = target: T1, recombinant human IL-18; experiment: cell-based or functional assay
# [2] = target: T2, recombinant mouse IL-18 protein; experiment: cell-based or functional assay
# [3] = target: T1, recombinant human IL-18; experiment: SPR KD of this filing compared with a literature BIAcore value (Kim et al. 2000)
# Method: (§1) Surface Plasmon Resonance (SPR) assay was performed by Wide River Institute of Immunology (Seoul National University, Seoul, KR) to measure the binding affinity, equilibrium dissociation constant (KD), of APB-R3 to recombinant human IL-18 (Prospec) and human serum albumin (Sigma) by using BiaCore™ T200 (GE Healthcare), Sensor Chip CM5 (Cytiva), and HBS-EP+(Cytiva), as a running buffer. APB-R3 was immobilized by using Amine Coupling Kit (GE Healthcare) in pH 4.5 and the analyte of human IL-18 was diluted and prepared at 62.5 nM, 31.3 nM, 15.6 nM, 7.8 nM, 3.9 nM, and 1.95 nM, and the analyte of human serum albumin was diluted and prepared at 1,250 nM, 625 nM, 313 nM, 156 nM, 78 nM, 39 nM, and 19.5 nM. Kinetics between APB-R3 and human IL-18 or human serum albumin was analyzed by 1:1 binding fitting.
# [4] = target: T1, recombinant human IL-18; experiment: SPR, BiaCore T200, APB-R3 amine-coupled on CM5 chip, human IL-18 as analyte, 1:1 fit
# Method: as §1
# [5] = target: T3, human serum albumin (human, UniProt P02768 25-609); experiment: SPR, BiaCore T200, APB-R3 amine-coupled on CM5 chip, human serum albumin as analyte, 1:1 fit
# T3 construct: also called HSA; Human serum albumin (Sigma)
# Method: as §1
# T3 sequence (P02768 25-609 limits assumed): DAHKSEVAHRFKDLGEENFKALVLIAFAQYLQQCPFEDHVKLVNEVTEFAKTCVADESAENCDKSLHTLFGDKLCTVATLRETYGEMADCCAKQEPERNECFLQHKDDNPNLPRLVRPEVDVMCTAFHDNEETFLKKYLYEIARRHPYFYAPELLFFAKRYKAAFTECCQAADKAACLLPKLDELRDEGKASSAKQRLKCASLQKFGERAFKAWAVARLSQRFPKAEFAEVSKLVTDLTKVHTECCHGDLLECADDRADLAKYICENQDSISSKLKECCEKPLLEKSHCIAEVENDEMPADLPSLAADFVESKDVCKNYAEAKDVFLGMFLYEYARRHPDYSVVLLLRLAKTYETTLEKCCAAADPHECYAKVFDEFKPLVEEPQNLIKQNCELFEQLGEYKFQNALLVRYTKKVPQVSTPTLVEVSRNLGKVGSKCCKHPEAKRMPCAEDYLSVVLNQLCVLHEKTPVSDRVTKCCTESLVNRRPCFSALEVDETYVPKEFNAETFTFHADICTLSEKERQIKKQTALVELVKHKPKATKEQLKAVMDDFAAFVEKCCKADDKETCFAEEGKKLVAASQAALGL
binder,measurement,setting,value
B1,IC50 of inhibition of IL-18-induced IFN-γ production in KG-1 cells,[1],0.0419 nM
same,IC50 (read off the curve); mouse IL-18-induced IFN-γ secretion by mouse CD4+ T cells,[2],~0.4 nM
same,fold higher binding affinity than human IL-18BPa (literature KD 399 pM),[3],~6 fold
same,Kd,[4],0.0609 nM
same,koff,[4],2.48e-05 s⁻¹
same,kon,[4],406000 M⁻¹ s⁻¹
same,Kd,[5],16.8 nM
same,koff,[5],0.00157 s⁻¹
same,kon,[5],93800 M⁻¹ s⁻¹
